Laboratory results as given in patent US20120208232, “Cell-Free Synthesis of Active Reprogramming Transcription Factors” (published 2012).

How the values were obtained:
rhNanog = rhNanog (Homo sapiens, UniProt Q9H9S0 Q9H9S0:1-305); assay: NoShift plate assay, positive control; details: tags: Abcam; label: biotin
Description: (§1) Assessment of the DNA Binding Activities of the Fusion Reprogramming Factors. The DNA-binding activities of the R9-Nanog, R9-Oct3/4, and R9-Sox2 fusion proteins were assayed by colorimetry utilizing the NoShift Transcription Factor Assay Kit (Novagen) according to the manufacturer's instructions. To assess sequence-specific binding activity, 1-2 μg of the R9-Nanog fusion protein, 2-10 μg of the R9-Oct3/4 fusion protein or 1-4 μg of the R9-Sox2 fusion protein were each incubated in […] with 0.5 μM of their respective biotinylated consensus dsDNA binding targets. […] Non-biotinylated competitor consensus dsDNA and scrambled dsDNA used to assess competitive binding were added at […]. As a positive control, recombinant human (rh) Nanog (Abcam) and rhSox (Peprotech) were used. HRP-conjugated anti-mouse immunoglobulin G was used as a secondary antibody to recognize the anti-Nanog (Abcam), anti-Oct3/4 (R&D Systems), and anti-Sox2 (R&D Systems) mouse monoclonal antibodies. All assays were performed in duplicate. Binding activity was measured via colorimetric absorbance at 450 nm on a Tecan multiwell spectrophotometer using 3,3,5,5-tetramethylbenzidine as the substrate.
(§2) The NoShift Assay (Novagen) was used to verify the DNA binding activities of R9-Nanog, R9-Sox2, and R9-Oct3/4. […]

R9-Oct3/4 = R9-Oct3/4 (Homo sapiens, UniProt Q01860 Q01860:1-360); assay: NoShift plate assay, 0.5 uM DNA; reduced by unlabelled consensus competitor; details: protein: synthetic; tags: N-terminal CAT9-StrepTagII-Xa-R9-His6-G4S fusion, E. coli cell-free synthesis; label: biotin
Description: as §1, §2

rhSox2 = rhSox2 (Homo sapiens, UniProt P48431 P48431:1-317); assay: NoShift plate assay, positive control; details: tags: Peprotech; label: biotin
Description: as §1, §2

R9-Sox2 = R9-Sox2 (Homo sapiens, UniProt P48431 P48431:1-317); assay: NoShift plate assay, 0.5 uM DNA; reduced by unlabelled consensus competitor; details: protein: synthetic; tags: N-terminal CAT9-StrepTagII-Xa-R9-His6-G4S fusion, E. coli cell-free synthesis; label: biotin
Description: as §1, §2

R9-Sox2, sequence (P48431 whole entry, the tested form may be a part, one chain of several): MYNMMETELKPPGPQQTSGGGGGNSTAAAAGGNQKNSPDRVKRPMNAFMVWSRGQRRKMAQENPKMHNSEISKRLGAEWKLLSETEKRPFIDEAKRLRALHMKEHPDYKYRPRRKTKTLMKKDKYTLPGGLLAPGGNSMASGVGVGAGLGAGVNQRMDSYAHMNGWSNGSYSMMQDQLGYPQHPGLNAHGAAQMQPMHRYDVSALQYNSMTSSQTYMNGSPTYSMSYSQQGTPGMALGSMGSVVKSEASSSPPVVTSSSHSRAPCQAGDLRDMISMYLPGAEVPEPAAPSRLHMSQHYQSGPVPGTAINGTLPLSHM
rhSox2, sequence (P48431 whole entry, one chain of several): as the sequence (P48431 whole entry, the tested form may be a part, one chain of several) above
rhNanog, sequence (Q9H9S0 whole entry, the tested form may be a part, one chain of several): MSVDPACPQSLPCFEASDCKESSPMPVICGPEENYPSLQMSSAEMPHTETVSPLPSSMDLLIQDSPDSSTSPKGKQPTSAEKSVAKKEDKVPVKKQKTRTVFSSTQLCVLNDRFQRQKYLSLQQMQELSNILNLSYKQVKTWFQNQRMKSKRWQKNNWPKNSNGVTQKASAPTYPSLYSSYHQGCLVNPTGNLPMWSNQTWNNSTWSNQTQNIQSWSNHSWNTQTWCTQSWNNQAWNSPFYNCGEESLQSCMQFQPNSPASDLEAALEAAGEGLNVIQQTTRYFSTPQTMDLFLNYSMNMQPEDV
R9-Oct3/4, sequence (Q01860 whole entry, the tested form may be a part, one chain of several): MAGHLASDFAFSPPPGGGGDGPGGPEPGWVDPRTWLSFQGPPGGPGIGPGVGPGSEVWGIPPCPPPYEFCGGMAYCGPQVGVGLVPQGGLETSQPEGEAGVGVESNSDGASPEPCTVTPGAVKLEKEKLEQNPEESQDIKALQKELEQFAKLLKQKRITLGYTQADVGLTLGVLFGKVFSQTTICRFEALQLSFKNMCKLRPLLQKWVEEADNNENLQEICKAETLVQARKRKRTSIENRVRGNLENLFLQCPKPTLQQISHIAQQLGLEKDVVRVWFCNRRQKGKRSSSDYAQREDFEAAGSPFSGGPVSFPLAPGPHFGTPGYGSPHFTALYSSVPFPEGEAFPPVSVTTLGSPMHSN

B1: Nanog consensus dsDNA (dsDNA)
DNA 1: ACCTGTTAATGGGAGCGC
DNA 2: GCGCTCCCATTAACAGGT
B1: binds (rhNanog).

B2: Oct3/4 consensus dsDNA (dsDNA)
DNA 1: GCAGAGAGATGCATGTGCCGT
DNA 2: ACGGCACATGCATCTCTCTGC
B2: binds (R9-Oct3/4).

B3: Sox2 consensus dsDNA (dsDNA)
DNA 1: GCAGAGGACAAAGGTGCCGTG
DNA 2: CACGGCACCTTTGTCCTCTGC
B3: binds (rhSox2); binds (R9-Sox2).
